Results: the supplement of paper PMC9170038

Tested on: MS2 coat protein
Assay: apparent KD of MS2 coat protein; higher = weaker reporter binding
Conditions: Eterna round: R107
Method: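 RNA-MaP round R107: designed RNA switches with theophylline, tryptophan, arginine or FMN aptamers are transcribed on-chip within common flanks. They are titrated with SNAP-549-labelled MS2 coat protein in RNA-MaP buffer (100 mM Tris pH 7.5, 80 mM KCl, 4 mM MgCl2), without ligand or with the indicated ligand. Median apparent KD per design.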

[1] = input ligand: theophylline 20 uM
[2] = input ligand: tryptophan 2.4 mM
[3] = input ligand: theophylline 2 mM

Sequence	apparent KD of MS2 coat protein (input ligand: arginine 13.2 mM)	apparent KD of MS2 coat protein [1]	apparent KD of MS2 coat protein [2]	apparent KD of MS2 coat protein (input ligand: none)	apparent KD of MS2 coat protein [3]
AAGCUGCCAAGAACAUGGGUGAAAUGUGAUACCAGCUAGGAAACUAGCCCUUGGCAGCACAUGAGGAUCACCCAUGUAAUAAUAA [(T)'-(M)'-(T1)-(T2)-(M1)-(M2)_Design2_2/19/17]	75.7 nM	264 nM	377 nM	–	–
AAGGGUGAGUCUCUAAUCCGUUUGACGGAUACCAGCGAGAGAUAUCGCCCUUGGCAGCCGACGACAUGAGGAUCACCCAUGUAAA [Exclusion - Theophylline A]	17 nM	22 nM	14 nM	–	–
AAGGUAUCACAGAGGUGAUUCAACUGUGAUACCAGCUAGGAAACUAGCCCUUGGCAGCACAUGAGGAUCACCCAUGUAAGAAUAA [(T)'-(M)'-(T1)-(T2)-(M1)-(M2)_Design3_2/19/17]	36.3 nM	33.6 nM	37.1 nM	36.5 nM	128 nM
AAGGUGAUCCGUGAUACCAGCUCAACAUGAGGAUCACCCAUGUAACGGACGAAAGUCCGGAGCCCUUGGCAGCACGGUUGCCAAG [(M)'-(Theo1)-(Ms2)-(Theo2)-(M'')-(T2)'_Design1b]	29.4 nM	62 nM	83.8 nM	127 nM	12.5 nM
AAUAACAUGAGGAUCACCCAUGUAAAAGAUACCAGAGUGAUGAUCCUCCCUUGGCAGCUUAAACGCUAUUGGAAACAAUAGCGAA [Mat - Same State Theophlline A - Mod of Eli - D3]	54.5 nM	163 nM	57.7 nM	–	–
AAUAACAUGAGGAUCACCCAUGUAAAAGAUACCAGAGUGAUGAUCCUCCCUUGGCAGCUUAAUAACGCUAUCGGAAACGAUAGCG [Mat - Same State Theophlline A - Mod of Eli - D8]	37.7 nM	170 nM	72 nM	–	–
AAUAAGAGCUCGGAUACCAGCGAAAACAGGCACAUGAGGAUCACCCAUGUUAACGCACUGCGCCCUUGGCAGCCGCACGUGUGUC [theeternabot_sameState_MS2_Theo_B_39]	19.6 nM	25.4 nM	22 nM	–	–
AAUAAGAUCCUCAUGUGAGUCGUACCAUAACGAGGACCGGUACGGCCGCCACUCGAACAUGAGGAUCACCCAUGUAGGUACGACA [M'-T'-T-MS2-T'' - Design 8]	49.8 nM	320 nM	–	–	882 nM
AAUAAUAAGGCGGCCGCCACUAAACAUGAGGAUCACCCAUGUCUCGAGCGCAUACAUAAGGGAUGUAGGACCGGGCCAAUAAUAA [Exclusion - Tryptophan B (Freestyle 1)]	19 nM	25.7 nM	21.3 nM	23.5 nM	23 nM
AAUAAUAAGGCGGCCGCCACUAAACAUGAGGAUCACCCAUGUCUCGAGGGCUUGCGUUGGGAAAGUAGGACCGGGCCAAUAAUAA [Exclusion - Tryptophan B (Freestyle 7)]	10.2 nM	20.5 nM	13.3 nM	18.7 nM	14.9 nM
AAUAAUCUAGGUGAUACCAGCUCAACAUGAGGAUCACCCAUGUGCUCAUGAAGAGCUGAGAGCCCUUGGCAGCACCUAGAUAAUA [(Theo1)-(Ms2)-(M)'-(T)'-(Theo2)_Design2]	461 nM	676 nM	1100 nM	739 nM	28.5 nM
AAUAUAUAUCACGAACUGUGGUGUAUGUUGCGAGGACCGGUACGGCCGCCACUCGACCGGUGGUACAUGAGGAUCACCCAUGUUG [XTryp A #10]	35.6 nM	82 nM	58.1 nM	57.2 nM	56.4 nM
AAUAUCAUGAGGAUCACCCAUGAAGAAGAUACCAGAGUGAUGAUCCUCCCUUGGCAGCUUAACGCUGAUUGAUUACAAUCAGCGA	31.1 nM	128 nM	30.3 nM	51.8 nM	200 nM
AAUAUUAACUGAAGGAGCGUGUUAUGUACAUGAGGAUCACCCAUGUAUAGGGUAAUACUAACACAGGUAGGUCGCAGAAUAAUUA [JR_SSArginiB_Sub010]	20.2 nM	37.9 nM	18.5 nM	20.6 nM	22 nM
AAUCAUGGAAACAUGACAUGAGGGUUACUCCGAGGACCGGUACGGCCGCCACUCGCGAGGAGGCGGACAUGAGGAUCACCCAUGU [#04 Tryptophan A Same State]	32.4 nM	240 nM	41.6 nM	392 nM	260 nM
AAUCCAAGAAAUGAUACCAGUCCCACUCAGGACAUGAGGAUCACCCAUGUAAUACAGGGAGACCCUUGGCAGCAUCGAAUAAACA [theeternabot_sameState_MS2_Theo_B_33]	178 nM	479 nM	1070 nM	–	–
AAUCUGUCGGGUGAUACCAGCCUCGGCACAUCUCGUGCCGAACAUGAGGAUCACCCAUGUGGCCCUUGGCAGCACAUGACAAAUC [Usreerso]	289 nM	801 nM	520 nM	–	–
AAUGUGAUAGUCGUACUCUCACACUGAGAAGGAGCGCGAAAGUUCGCAGGUAGGUCGCUCAGUUAUACAUGAGGAUCACCCAUGU [Edgeised]	21.9 nM	26.8 nM	20.9 nM	21 nM	27.3 nM
